Measurements: US20190062389A1 (CYTLIMIC, published 2019)

Key:
[1] = biological target: T1, HLA-A*24:02 molecule (product of HLA-A*24:02 gene) on C1R-A24 cells (human); assay: flow cytometry, acid-stripped C1R-A24 cells with added b2m, peptide dilution series, 17A12 staining
T1 construct: MHC class I molecule emptied of peptide; the peptide under test reassembles with heavy chain and added b2m; assembly stained with antibody 17A12
Description: First, C1R-A24 cells were exposed to acidic conditions of pH 3.3 for 30 seconds to dissociate and remove endogenous peptides which were originally bound to the HLA-A*24:02 molecule and a light chain, β2m, which was commonly associated with HLA class I molecules. After neutralization, purified β2m was added to the C1R-A24 cells, which was then added to peptide dilution series. The mixtures were each then incubated on ice for 4 hours. The 3-molecule assembly (MHC-pep) consisting of the HLA-A*24:02 molecule, the peptide, and β2 m which had been reasociated during the incubation was stained with a fluorescent labeled monoclonal antibody, 17A12, recognizing the assembly.
Subsequently, the number of MHC-pep's per C1R-A24 cell (which is proportional to the fluorescent intensity of the above fluorescent antibody) was quantitatively measured using a fluorescent cell analyzer, FACScan (Becton, Dickinson and Company). The binding dissociation constant, Kd value, between the HLA-A*24:02 molecule and the peptide was calculated from the average fluorescent intensity per cell using a method as published in a paper (Udaka et al., Immunogenetics, 51, 816-828, 2000) by the present inventor.

[2] = biological target: T2, HLA-A*02:01 molecule (product of HLA-A*02:01 gene) on T2 cells (human); assay: flow cytometry, T2 cells with added b2m, peptide dilution series, BB7.2 staining
T2 construct: MHC class I molecule on TAP-deficient T2 cells; stabilisation read with antibody BB7.2
Description: T2 cells and purified β2m were added to stepwise dilution series of a peptide whose binding capacity was to be measured, which was then incubated at 37° C. for 4 hours.
(§1) Thereafter, the amount of fluorescence per cell was measured using a flow cytometer, and the dissociation constant, Kd value, was calculated using a method as published in a paper by the present inventor (Udaka et al., Immunogenetics, 51, 816-828, 2000).

[3] = biological target: HLA-A*02:06 molecule (product of HLA-A*02:06 gene) on RA2.6 cells (human); assay: flow cytometry, RA2.6 cells, peptide dilution series, BB7.2 staining
Description: First, the RA2.6 cells were cultured overnight at 26° C. to accumulate the HLA-A*02:06 molecules unbound to the peptide on the cell surface. Any of peptide dilution series was added thereto for binding at 26° C. for 60 minutes.
Subsequently, the mixture was cultured at 35° C. for 4 hours, resulting in the denaturation of the empty HLA-A*02:06 molecule unbound to the peptide and the loss of its steric structure. A fluorescent labeled monoclonal antibody, BB7.2, specifically recognizing a peptide-bound HLA-A*02:06 molecule, was added thereto, which was then incubated on ice for 20 minutes to stain the cells.
as §1

| Binder | Binding Experiment Data (log Kd) [1] | Binding Experiment Data (log Kd) [2] | Binding Experiment Data (log Kd) [3] |
| --- | --- | --- | --- |
| GYICSHSPV (Synthetic peptide; only the start position in GPC3 is printed) [GPC3-derived peptide GYICSHSPV (SEQ ID NO: 6)] | -6.55 log Kd (concentration unit not printed) | – | – |
| LFDSLFPVI (Synthetic peptide; only the start position in GPC3 is printed) [GPC3-derived peptide LFDSLFPVI (SEQ ID NO: 2)] | -7.43 log Kd (concentration unit not printed) | -5.07 log Kd (concentration unit not printed) | – |
| SALDINECL (Synthetic peptide; only the start position in GPC3 is printed) [GPC3-derived peptide SALDINECL (SEQ ID NO: 3)] | – | – | -6.32 log Kd (concentration unit not printed) |
| ALNLGIEVI (Synthetic peptide; only the start position in GPC3 is printed) [GPC3-derived peptide ALNLGIEVI (SEQ ID NO: 7)] | -3.96 log Kd (concentration unit not printed) | -5.92 log Kd (concentration unit not printed) | -4.16 log Kd (concentration unit not printed) |
| GMIKVKNQL (Synthetic peptide; only the start position in GPC3 is printed) [GPC3-derived peptide GMIKVKNQL (SEQ ID NO: 10)] | -6.9 log Kd (concentration unit not printed) | -4.76 log Kd (concentration unit not printed) | -3.36 log Kd (concentration unit not printed) |
| MVNELFDSL (Synthesized by Fmoc solid-phase method, purity 95% or more; the end is derived from the length of 9) [GPC3-derived peptide MVNELFDSL (SEQ ID NO: 1)] | -4.7 log Kd (concentration unit not printed) | -5.31 log Kd (concentration unit not printed) | -6.14 log Kd (concentration unit not printed) |
| SLQVTRIFL (Synthetic peptide; only the start position in GPC3 is printed) [GPC3-derived peptide SLQVTRIFL (SEQ ID NO: 4)] | -5.34 log Kd (concentration unit not printed) | -6.21 log Kd (concentration unit not printed) | -5.21 log Kd (concentration unit not printed) |
| KLTTTIGKL (Synthetic peptide; only the start position in GPC3 is printed) [GPC3-derived peptide KLTTTIGKL (SEQ ID NO: 9)] | -5.21 log Kd (concentration unit not printed) | -4.97 log Kd (concentration unit not printed) | -5.03 log Kd (concentration unit not printed) |
| ARLNMEQLL (Synthetic peptide; only the start position in GPC3 is printed) [GPC3-derived peptide ARLNMEQLL (SEQ ID NO: 11)] | -5.2 log Kd (concentration unit not printed) | -3.84 log Kd (concentration unit not printed) | -2.76 log Kd (concentration unit not printed) |
| LLQSASMEL (Synthetic peptide; only the start position in GPC3 is printed) [GPC3-derived peptide LLQSASMEL (SEQ ID NO: 8)] | -5.49 log Kd (concentration unit not printed) | -6.14 log Kd (concentration unit not printed) | -5.88 log Kd (concentration unit not printed) |
